{"source": "patent US20090111753A1", "about": "“Nogo-A Polypeptide Fragments, Variant Nogo Receptor-1 Polypeptides, and Uses Thereof” (Yale University, priority 2004, published 2009)", "binders": {"B1": {"name": "NgR expressed on COS-7 cells (species not stated) (receptor)", "chain": "CPGACVCYNEPKVTTSCPQQGLQAVPVGIPAASQRIFLHGNRISHVPAASFRACRNLTILWLHSNVLARIDAAAFTGLALLEQLDLSDNAQLRSVDPATFHGLGRLHTLHLDRCGLQELGPGLFRGLAALQYLYLQDNALQALPDDTFRDLGNLTHLFLHGNRISSVPERAFRGLHSLDRLLLHQNRVAHVHPHAFRDLGRLMTLYLFANNLSALPTEALAPLRALQYLRLNDNPWVCDCRARPLWAWLQKFRGSSSEVPCSLPQRLAGRDLKRLAANDLQGCAVATGPYHPIWTGRATDEEPLGLPKCCQPDAADKASVLEPGRPASAGNALKGRVPPGDSPPGNGSGPRHINDSPFGTLPGSAEPPLTAVRPEGSEPPGFPTSGPRRRPGCSRKNRTRSHCRLGQAGSGGGGTGDSEGSGALPSLTCSLTPLGLALVLWTVLGPC"}, "B2": {"name": "AP fusion protein with the B4C fragment of Amino-Nogo-A fused directly to Nogo-66 (ligand)", "chain": "LLPPDVSALATQAEIESIVKPKVLVKEAEKKLPSDTEKEDRSPSAIFSAELSKTSVVDLLYWRDIKKTGRIYKGVIQAIQKSDEGHPFRAYLESEVAISEELVQKYSNSALGHVNCTIKELRRLFLVDDLVDSLK", "notes": "domain: Nogo-66; also called AP-B4C66; AP-B4C-66; not shown: alkaline phosphatase (AP), vector pcAP6"}}, "key": {"[1]": {"target": "T1, AP-fused Amino-Nogo fragment B (a.a. 622-1018) (human, UniProt Q9NQC3 622-1018)", "T1 construct": "also called AmNg B; AP-AmNgB; not shown: alkaline phosphatase (AP), vector pcAP6", "T1 sequence": "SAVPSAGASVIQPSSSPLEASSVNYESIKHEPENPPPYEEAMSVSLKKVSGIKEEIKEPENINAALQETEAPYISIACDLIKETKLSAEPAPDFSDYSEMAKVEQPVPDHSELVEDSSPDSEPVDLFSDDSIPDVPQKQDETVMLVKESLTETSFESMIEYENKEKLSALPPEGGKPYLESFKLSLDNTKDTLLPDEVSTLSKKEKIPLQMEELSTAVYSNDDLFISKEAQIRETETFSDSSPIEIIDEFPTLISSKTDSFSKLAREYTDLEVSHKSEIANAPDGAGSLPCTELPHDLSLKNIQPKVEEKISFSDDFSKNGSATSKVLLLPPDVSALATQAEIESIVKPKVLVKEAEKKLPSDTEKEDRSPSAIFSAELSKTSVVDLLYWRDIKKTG", "assay": "AP fusion on NgR-expressing COS-7 cells", "excerpt": "(§1) Several alkaline phosphatase (AP) fusion proteins containing various Nogo-A segments derived from regions between the amino terminus and the first hydrophobic segment were examined to identify the mechanism of Amino-Nogo-A action. To generate additional AP fusion proteins, human amino Nogo fragments were amplified and ligated to the pcAP6 vector digested with restriction enzymes EcoRI and XhoI as described (Fournier, A. E., et al., Nature 409:341-346 (2001)). Plasmids were then transfected into HEK293T cells and conditioned media were collected after 7 days. None of these fragments bind with high affinity to non-transfected COS-7 cells. […] This binding is saturable with a Kd indistinguishable from that for AP-Nogo-66 association with NgR (Table I). To better define the region responsible for Amino-Nogo interaction with NgR, a range of truncation mutants of Amino-Nogo were examined as AP fusion proteins.\n(§2) Binding Kds for AP fused Amino-Nogo fragments were measured by applying conditioned media containing AP fusion protein to NgR expressing COS-7 cells. Bound AP was stained and measured."}, "[2]": {"target": "T2, AP-fused Amino-Nogo fragment B4 (a.a. 877-1018) (human, UniProt Q9NQC3 877-1018)", "T2 construct": "also called AmNg B4; AP-B4; not shown: alkaline phosphatase (AP), vector pcAP6", "T2 sequence": "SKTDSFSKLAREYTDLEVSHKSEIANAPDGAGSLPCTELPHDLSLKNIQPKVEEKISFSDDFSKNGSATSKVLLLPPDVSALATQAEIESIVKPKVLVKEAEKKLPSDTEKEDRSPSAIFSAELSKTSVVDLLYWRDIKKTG", "assay": "AP fusion on NgR-expressing COS-7 cells", "excerpt": "as §1, §2"}, "[3]": {"target": "B2", "assay": "AP fusion on NgR-expressing COS-7 cells", "excerpt": "as §1, §2"}, "[4]": {"target": "T3, AP-fused Amino-Nogo fragment B4C (a.a. 950-1018) (human, UniProt Q9NQC3 950-1018)", "T3 construct": "also called AmNg B4C; AP-B4C; not shown: alkaline phosphatase (AP), vector pcAP6", "T3 sequence": "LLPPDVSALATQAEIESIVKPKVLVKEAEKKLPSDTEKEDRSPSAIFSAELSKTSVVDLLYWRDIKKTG", "assay": "AP fusion on NgR-expressing COS-7 cells", "excerpt": "as §1, §2"}, "[5]": {"target": "T4, NgR expressed on COS-7 cells (species not stated)", "T4 chain": "B1 chain", "assay": "AP-ligand binding to NgR-expressing COS-7 cells (Scatchard)"}, "[6]": {"target": "T5, human NgR1 alanine mutant 82, 179 (human, UniProt Q9BZR6 27-473)", "T5 sequence": "B1 chain with N56A, N153A", "assay": "AP-ligand binding, COS-7"}, "[7]": {"target": "T6, human NgR1 alanine mutant 163 (human, UniProt Q9BZR6 27-473)", "T6 sequence": "B1 chain with D137A", "assay": "AP-ligand binding, COS-7"}, "[8]": {"target": "T7, human NgR1 alanine mutant 158, 160 (human, UniProt Q9BZR6 27-473)", "T7 sequence": "B1 chain with Y132A, Y134A", "assay": "AP-ligand binding, COS-7"}, "[9]": {"target": "T8, human NgR1 alanine mutant 133, 136 (human, UniProt Q9BZR6 27-473)", "T8 sequence": "B1 chain with H107A, H110A", "assay": "AP-ligand binding, COS-7"}, "[10]": {"target": "T9, human NgR1 alanine mutant 232, 234 (human, UniProt Q9BZR6 27-473)", "T9 sequence": "B1 chain with Y206A, F208A", "assay": "AP-ligand binding, COS-7"}, "[11]": {"target": "T10, human NgR1 alanine mutant 182, 186 (human, UniProt Q9BZR6 27-473)", "T10 sequence": "B1 chain with H156A, H160A", "assay": "AP-ligand binding, COS-7"}}, "note": "Substitutions are numbered along the chain they refer to. Names may count otherwise."}
{"binder": "B1", "values": [{"measurement": "Kd", "setting": "[1]", "result": 6.66, "unit": "nM"}, {"measurement": "Kd", "setting": "[2]", "result": 9.01, "unit": "nM"}, {"measurement": "Kd", "setting": "[3]", "result": "< 1", "unit": "nM"}, {"measurement": "Kd", "setting": "[4]", "result": 3.51, "unit": "nM"}]}
{"binder": "B2", "values": [{"measurement": "Kd", "setting": "[5]", "result": 0.42, "unit": "nM"}, {"measurement": "binding result", "setting": "[6]", "result": "no binding"}, {"measurement": "binding result", "setting": "[7]", "result": "no binding"}, {"measurement": "binding result", "setting": "[8]", "result": "no binding"}, {"measurement": "binding result", "setting": "[9]", "result": "no binding"}, {"measurement": "binding result", "setting": "[10]", "result": "no binding"}, {"measurement": "binding result", "setting": "[11]", "result": "no binding"}]}
